This is an account of results in the supplement of paper PMC11502859.

This data set concerns HEK293T. Briefly: median enrichment of reporter reads in eGFP-reduced (low/intermediate) vs eGFP-high sorted cells (eGFP-extension fusion abundance) (ratio); higher = stronger loss of eGFP-fusion protein abundance (more destabilising extension).
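Also: lentiviral eGFP-IRES-mCherry reporter pool sorted by FACS 96 h post-transduction, gated on mCherry-high cells, Illumina read counts normalized per million, median across four biological replicates.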

EIF2AK2, sequence (chain, as listed by the source): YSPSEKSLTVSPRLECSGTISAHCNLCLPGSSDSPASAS
CASP8, sequence (chain, as listed by the source): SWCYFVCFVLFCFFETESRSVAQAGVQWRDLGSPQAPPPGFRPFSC

As to WSICLLNDTSLIYCTIS [RTCA], the median enrichment is 12.5. Regarding “LILYPSAMATRRTNNCPPLEVRLIEALDPNKIRIRICNGPGAVPHACHPSTLGG [RBPMS]”, the median enrichment came to 3.14. Regarding “RQEGRPHCFSHPFPLLPMGRGPGCRKSSYLQELHHNLEGSSWSCEFSLYSVTIPDHLIKMLPPSIGFIELVTS [NME1]”, the median enrichment stood at 9.63.

Regarding “SVGEWAGMCILLPNSSIQDCAHIRSTRTSSHQHKNINRNAALSTV [WFDC10A]”, the median enrichment is 5.12. Under QKPYEYCEYGKAI [ZNF569] stands 0.563; under SEITDTFFGIHILGLGGVAHACNPSPLGG [CTSL], 13.3. As for “LLCKEYGIAKISLVANISGKVHIFILNSHSFEL [MYNN]”, the median enrichment was determined as 4.26. The value for CQFKEKKM [PHTF2] was 0.408. The value for SGLQGRQLSFV [SYT17] was 0.686; that for GGGGGGGG [Gly08] was 1.64.

Consider CETHNFISHSDHRLLNIADRNRSLQGV [TAS2R13], for which the median enrichment worked out at 2.12. The value for QEDFKVNFPSLFLN [CSN2] was 0.654; that for YIPNILGL [RASEF] was 10.1; that for SNGSI [PHF20L1] was 0.369. Under YLLCVVGGGYYLYQPSVCHEPVGKSDIFII [IL1RAP] stands 6.77. Under “QAASWRFEDAAFGLDEFQILLACFLILICLYTYTLCTKLFLIHGLLNPQMWSPWIRKARCTLNDK [B2M]” stands 11.1; under “DQPHSAQEAASGVGAQRGTAASSTAGCGAAGPGPSAWAAEYIFYLSETSIFLGSNPTCHHVDISSYLTMLSLLGAVLVGPGPC [BAP1]”, 4.59; under “WSLKWRTCVFIISAKVLTSCAFPITSRSNYQLVWIFGPPFSHFGLPCSQNILNESIGIQKDSRQNERK [VCAN]”, 11.9. Take “WGWTPVPAGRSPDMWTCSFVPTVHAGLRLEPRGAGQFTGSCRTRCQPLRGGTADARGFAHPGPSVPRAK [ITPKA]”: the median enrichment is 6.95. For YNLIASTLKDKTSNSHLL [KIF9], the median enrichment came to 1.28. For the substance LRASPRRDGKKIYKYISF [CYP2U1], the median enrichment was 7.5. Under QLFLKMAIVYEICISVSLYKF [NUP133] stands 11.5; under WILAELLCT [COPS4], 5.2; under EHQETLE [KLHL14], 0.343.

Turning to “CGRCTRQEEGDWGPWPGTVLLRGRRRLQQSHGSPRGEGCLSRFLRPRRSDFWARGHARAVQSWPGPPVGLLCSLPSLPPDAGP [FRMD8]”, the median enrichment stood at 5.53. As for WGSCSGGRV [ZNF330], the median enrichment amounted to 0.598.

Take VVVVVVVVV [Val09]: the median enrichment was found to be 8.21. Under “GRRWCFRTLSHSLPSSALCHSQPFQQPRQPLLRPFPQPDTHSH [AMOTL2]” stands 12.3; under WSILQDLPEAA [PCDH10], 9.03. Under WRPPHFRFGFRKTFSEKKLFF [TFDP1] stands 5.19; under YQNNGFL [GNL3], 1.22; under “EPWPWAPPQGRASRNGDSPGTACPQRGGGHSWAPESLRVLPTEPLGWEGAGGLARTPTFASSSSCPAGRAPPCMMGKAILPLP [SCN1B]”, 2.5. Under MMMMM [Met05] stands 5.18; under “QICIIQAYLVKQTHIMGLGNIYLSKFAITDLGFFPFFEGKFNYIALLFFPLRDSLLGKCFLRTKI [CHMP5]”, 4.31; under “TLTMPRPHPVQHSQSSHLHPRTVGAGRHFPLEHVLRSITLGPTARLSLPPGSCMRSPDQLDHHFAQPLNTMHQASISQFPLAF [SCARA5]”, 3.72. SRGSHAPPPPCHSLGPHLPLP [SDC1]: the median enrichment is 0.282.

In the case of EESATNYNFTIKTGKRPGMVAHACNHSTLGG [OR6C6], the median enrichment turned out to be 6.68. Under “SEERMYVCFTHRHQESSPMRFFFGGGRVYTAREQKYCVS [B4GALT5]” stands 9.99; under RYCSTQPNL [BRPF1], 3.69; under QQQQQQQQQ [Gln09], 0.104. Under YVHGLSLYPTALLCDSLMKLVTFTSQNFG [KDM4D] stands 7.32. The value for “RCKPPYESTVADRRRGGCCSCRSINMCCMSFLLFF [LMO7]” was 22.4; that for LIHGAEG [SLC16A1] was 1.29.

As for “LVLDKREAWKTPHASYHTSVLWLLSFEVLYCNLLICMECAYFLKGY [MED6]”, the median enrichment was 7.75. Under “SEEPQDHTHSPYPPQDYRTFWHTLYRVLGFTPQNDPTMSTHHQNPANGPPLPPSPDAEMVMGSWRVGSEMKGTPQWAAGPIFP [SLC13A5]” stands 3.6. For LFSSQLF [ADAM17], the median enrichment came out at 5.62. Under EIF2AK2 stands 2.12; under ECDKVQPSDLIIHKIIYT [ZNF679], 8.95; under SDSESN [MCM6], 0.12. The value for LTSQST [ANGPT2] was 0.829; that for “SQGGTTQAPWAPRERGGIRAGQPPGCRCQEQSQAQVAPAACPVPFPKAPLHIEGRKREFRQLHSPFTPNPVFYSPEKRRESHE [STARD8]” was 1.09.

Consider RRLARKMPRGG [TRAPPC3L], for which the median enrichment was 5.87. In the case of “RACQEVTTSLLPAAWARTALRFEGNMDPFGPAGTGHIPHPRATMGVGNFLVCFLIYL [PLEKHH3]”, the median enrichment came to 8.55. For WSRS [LCE3E], the median enrichment was found to be 1.42.

As for GHSPLLVPH [TP53], the median enrichment amounted to 0.449. Under “SALTHAHAPLTLKRIHNSLEKHPHVCCRTHSSQLRPIPVTTASPPTPVTTASPPTPVTTASPPTALSPRPMSACPRAQDFLTG [SSH3]” stands 2.09; under “YAQLAICKVTSAKFSFGSYPRAPMSSYQEVINVTPFHRLKGVITLLLG [PAFAH2]”, 4.37. Under CGSCGCPCCVALYDCC [NDUFB10] stands 4.77.

For SPF [SDHD], the median enrichment was 0.337. Under YNYLSPL [FAM104B] stands 2.29; under “RGCAPAGSSKDRPARSPSNPTFFWKGGVLQGQAGASSRLLGANPSMYIAFLSCLRAADSQRCARGERCAVGSRA [TNFRSF1A]”, 10.5; under YEDPPEE [IGF1], 2.17. The value for RCPCHLPSVHPESSQ [PPFIBP2] was 0.445; that for “QESSSRGTEDWGQEESGTQPSCPLTPGRPSPHPRVPQSYPLSACVARPDKHLQMAAAPTWDLPRRLEQKGLSLGWCFSSRVLG [TMEM141]” was 3.62. The value for “CNDKSRSKEIVGPKGKEGKSAPRLGPGTHTPPDHLGNSRALRSRMLTKSNIQSLVNQDAVSPSVWQSVALAAGKLKADFHSYV [RNF150]” was 4.3. For YHPGL [GORASP1], the median enrichment was determined as 0.424. “QVFGKQQRASPLPGGLPCRFWASFPCLSLFRCAFHL [MAP2K1]”: the median enrichment worked out at 13.2. RAAPPSGQKLK [ALG1L]: the median enrichment was determined as 0.251. Under KTIQKRNQFFPQSIQCLEY [HEATR3] stands 5.13; under WGYWPTLWAPCSA [EFCC1], 7.99. The value for RNEYMTGNNGDCL [CTPS2] was 0.464; that for WSPMPAHL [CDNF] was 9.59.

As to “YRNSEVQPLENNIQEGHIDYKLMSCPICNSGS [FRRS1]”, the median enrichment was found to be 25.3. Under “LVSRPWGSCFPIPEFPCSPPPVVLPDLHLELSPPESPHRRPAMEPSPPGAPWGPSP [ALPG]” stands 10.3. Under “LIHSQGKLGNSEEKSLPSFWMNCMSSGLSTTM [RNF32]” stands 10; under “WGSAQISVVRKPVPLGFSPHTTACRTLEWTQSSH [CA6]”, 7.98; under VVVVVV [Val06], 5.06. Under “WGMFVPGKAGGEPLQHLYIQEACREELVCWPQEEWELQTRSSDSLWPESNLVSPPASLF [FGF1]” stands 7.24; under WKMKIP [N4BP2L2], 1.67.

Consider “WPHPAPPPPRPTRRPPDSSPGASSATPSLHPWGPSPPACTEQGLGVSWEA [ITGB4]”, for which the median enrichment is 1.34. Consider SRSRDDALFSAIYPKLFQI [PCDHB5], for which the median enrichment was determined as 2.76. Take “RKFLLNISVGSCYQNFGYDFLGSVYFGCILNYGNGIYLLLTVNLFF [CCDC181]”: the median enrichment came out at 5.89.

On to QNILCTALVISDLD [MALSU1], for which the median enrichment was 7.03. As for CLQGSKLQR [OR7A5], the median enrichment turned out to be 3.17. Under “YDPCGRPLPPSHRLPHHSCLVLGRPHCALALGLPSLLQQGTGALARVTD [GTF3C1]” stands 6.87; under “SGVLSSHFCVTCHFLPLVPCRFGMKMVSFAVFNLFFIMVEYSSRSFVLVYEENLHIFFVFQ [CHIC1]”, 9.4.

YRSAVQENVMLGTPSSVVLASHASAAELAE [DEFA4]: the median enrichment is 2.45. Under “PLAPALPTSSAWSEGAARAQQRRGGRLWPPTSRPVPAGTASPSAGRGSAPRKCLLCPGAERRCLLGAGLPPCGSCAPWPGPCP [ARHGAP39]” stands 1.98; under YKKRCCLGLVGGACFS [HIGD1A], 3.33; under SPLL [PIK3C2G], 0.449. Under WAV [GBA2] stands 0.997; under “GPWDTAFSFARLSACRPGGEPGPANESLVYLGCNSLKVQSFGLQSCPGPGSPGHCCSPRPWALVFLQHHTCCPFSISVCVKGD [MYO1F]”, 5.6. Under “QDFMHSSERVTVTTVLSPISHKLLFVSKRMLLLLHCFPFAGTCWCLLLNWPALLAVWHCSLGRLLCSLYLHYRLVNLPTSSL [DCUN1D4]” stands 6.12; under LSSC [KRTAP13-1], 0.413; under “WTHPLVVDRLPGTTIIPGPPRASEFETLAEIK [TBC1D7]”, 4.38.

On to QDLSIF [KCNJ13], for which the median enrichment came out at 0.364. In the case of “QRRERCASILEGQQEAELFCLDSHHGPFAENCLGFQQLHICICEL [TAFA4]”, the median enrichment was 18.2. The value for EGPPCICT [PDK2] was 1.79; that for CASP8 was 22.5; that for YDGGQIKVLAFRCL [KCNMB3] was 9.29.
